Measurements from patent US20240199757A1.
Residue numbers refer to the chain shown, from its start.

T1: murine NT5E expressed on 4T1 cells (murine) (UniProt Q61503)
T1 sequence (looked up): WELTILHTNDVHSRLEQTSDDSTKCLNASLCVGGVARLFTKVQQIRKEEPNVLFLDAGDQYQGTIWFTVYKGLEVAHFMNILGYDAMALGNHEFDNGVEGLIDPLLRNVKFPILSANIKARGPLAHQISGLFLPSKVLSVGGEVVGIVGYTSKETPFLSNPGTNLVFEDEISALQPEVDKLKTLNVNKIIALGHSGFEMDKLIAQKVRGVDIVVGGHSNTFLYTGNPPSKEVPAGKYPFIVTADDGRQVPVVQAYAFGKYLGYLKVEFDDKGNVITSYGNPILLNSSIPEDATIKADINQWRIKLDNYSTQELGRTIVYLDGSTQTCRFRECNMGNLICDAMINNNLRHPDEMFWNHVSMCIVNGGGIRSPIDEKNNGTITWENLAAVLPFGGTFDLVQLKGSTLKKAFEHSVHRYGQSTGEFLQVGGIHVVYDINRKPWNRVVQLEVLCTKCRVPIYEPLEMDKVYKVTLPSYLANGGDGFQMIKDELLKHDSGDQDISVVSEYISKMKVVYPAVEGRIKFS

T2: human NT5E expressed on MDA-MB-231 cells (human) (UniProt P21589)
T2 sequence (looked up): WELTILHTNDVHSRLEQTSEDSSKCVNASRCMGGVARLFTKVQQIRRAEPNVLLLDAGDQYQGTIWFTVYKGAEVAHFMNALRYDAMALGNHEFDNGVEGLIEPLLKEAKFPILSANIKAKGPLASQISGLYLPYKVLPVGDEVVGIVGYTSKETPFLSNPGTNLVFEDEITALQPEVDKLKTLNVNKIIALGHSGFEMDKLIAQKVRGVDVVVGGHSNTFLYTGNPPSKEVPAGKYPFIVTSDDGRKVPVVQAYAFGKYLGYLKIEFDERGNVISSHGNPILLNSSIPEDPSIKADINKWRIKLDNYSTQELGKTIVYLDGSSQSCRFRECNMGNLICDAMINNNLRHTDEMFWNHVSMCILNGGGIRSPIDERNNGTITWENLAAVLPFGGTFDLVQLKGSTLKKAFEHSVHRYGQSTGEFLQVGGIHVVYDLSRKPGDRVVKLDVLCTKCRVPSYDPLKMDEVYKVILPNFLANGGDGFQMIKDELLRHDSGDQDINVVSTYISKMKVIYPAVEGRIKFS

B1: 1789 AM39 IgG (antibody, V domains shown)
VH: EVQLVESGGGLVQPGGSLRLSCAASGFNVSYSSIHWVRQAPGKGLEWVASIRGAGSDTRYADSVKGRFTISADTSKNTAYLQMNSLRAEDTAVYYCARNYWGWYPFYYFAFDYWGQGTLVTVSS
VL: DIQMTQSPSSLSASVGDRVTITCRASQSVSSAVAWYQQKPGKAPKLLIYSASSLYSGVPSRFSGSRSGTDFTLTISSLQPEDFATYYCQQGWDYPITFGQGTKVEIKR
B2: 1789 AM42 IgG (antibody, V domains shown)
VH: B1 VH with S50K, A54G, G55H, S56Q, R59H
VL: B1 VL
B3: 1789 AM32 IgG (antibody, V domains shown)
VH: B1 VH with S50R, A54N, G55E, S56G, R59Y
VL: B1 VL
B4: 1789 Fab (Fab, V domains shown)
VH: EVQLVESGGGLVQPGGSLRLSCAASGFNVSYSSIHWVRQAPGKGLEWVASISSSSGYTYYADSVKGRFTISADTSKNTAYLQMNSLRAEDTAVYYCARNYWGWYPFYYFAFDYWGQGTLVTV
VL: B1 VL

Key:
[1] = target: T1, murine NT5E expressed on 4T1 cells (murine); assay: cell-based or functional assay
[2] = target: T2, human NT5E expressed on MDA-MB-231 cells (human); assay: cell-based or functional assay
[3] = target: hNT5EFF (F417A/F500A mutant of hNT5E) (human); assay: DSF thermal shift, 1.5-fold molar excess of Fab, no ATP (hNT5EFF alone 47° C.)
[4] = target: hNT5EFF (F417A/F500A mutant of hNT5E) (human); assay: DSF thermal shift, 1.5-fold molar excess of Fab, 1 mM ATP (hNT5EFF alone 47° C.)

Binder	IC50 of NT5E activity on 4T1 cells, with ATP [1]	IC50 of NT5E activity on MDA-MB-231 cells, no ATP [2]	IC50 of NT5E activity on MDA-MB-231 cells, with ATP [2]	TM of NT5E in the presence of the Fab [3]	TM of NT5E in the presence of the Fab [4]
B1	12.7 nM	6.9 nM	2.5 nM	–	–
B2	8.8 nM	5.4 nM	1.9 nM	–	–
B3	9.1 nM	5.6 nM	2.3 nM	–	–
B4	–	–	–	47 ° C.	46 ° C.
